Data taken from patent US10344077.

Tests used:
AtheNA, Ab 6.25 ug/ml = substrate: T1, SSB (UniProt P05455); assay: AtheNA, Ab 6.25 ug/ml
T1 sequence (looked up): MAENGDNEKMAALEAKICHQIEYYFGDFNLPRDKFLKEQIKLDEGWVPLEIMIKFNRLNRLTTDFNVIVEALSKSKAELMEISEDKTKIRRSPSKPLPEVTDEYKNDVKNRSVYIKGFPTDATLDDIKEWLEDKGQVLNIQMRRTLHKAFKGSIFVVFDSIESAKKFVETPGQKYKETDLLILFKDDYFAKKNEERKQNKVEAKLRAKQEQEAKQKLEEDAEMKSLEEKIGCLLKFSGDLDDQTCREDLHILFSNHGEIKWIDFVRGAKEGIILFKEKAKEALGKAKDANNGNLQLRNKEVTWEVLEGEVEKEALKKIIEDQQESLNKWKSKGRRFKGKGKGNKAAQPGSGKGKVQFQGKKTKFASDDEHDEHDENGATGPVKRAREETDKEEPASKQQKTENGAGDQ

AtheNA, Ab 25 ug/ml = substrate: T1, ; assay: AtheNA, Ab 25 ug/ml
Centromere B [1] = molecular target: T2, Centromere B (UniProt P07199); assay: AtheNA, Ab 6.25 ug/ml
T2 sequence (looked up): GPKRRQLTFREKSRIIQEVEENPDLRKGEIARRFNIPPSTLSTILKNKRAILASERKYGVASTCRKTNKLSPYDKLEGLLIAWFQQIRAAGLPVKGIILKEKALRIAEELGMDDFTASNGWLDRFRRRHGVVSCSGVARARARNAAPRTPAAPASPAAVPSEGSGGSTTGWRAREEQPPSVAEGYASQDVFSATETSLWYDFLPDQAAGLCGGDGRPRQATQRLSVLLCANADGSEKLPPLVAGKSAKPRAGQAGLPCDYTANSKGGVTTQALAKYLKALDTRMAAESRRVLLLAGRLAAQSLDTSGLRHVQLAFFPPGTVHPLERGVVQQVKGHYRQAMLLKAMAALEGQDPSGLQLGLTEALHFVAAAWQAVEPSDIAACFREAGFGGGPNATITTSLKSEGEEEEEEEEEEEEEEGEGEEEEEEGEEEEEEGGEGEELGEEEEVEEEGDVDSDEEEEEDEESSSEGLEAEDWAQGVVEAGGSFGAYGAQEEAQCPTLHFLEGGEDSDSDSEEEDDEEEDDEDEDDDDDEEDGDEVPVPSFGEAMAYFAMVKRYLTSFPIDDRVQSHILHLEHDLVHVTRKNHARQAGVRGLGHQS

Jo-1 [2] = molecular target: T3, Jo-1 (UniProt P12081); assay: AtheNA, Ab 6.25 ug/ml
T3 sequence (looked up): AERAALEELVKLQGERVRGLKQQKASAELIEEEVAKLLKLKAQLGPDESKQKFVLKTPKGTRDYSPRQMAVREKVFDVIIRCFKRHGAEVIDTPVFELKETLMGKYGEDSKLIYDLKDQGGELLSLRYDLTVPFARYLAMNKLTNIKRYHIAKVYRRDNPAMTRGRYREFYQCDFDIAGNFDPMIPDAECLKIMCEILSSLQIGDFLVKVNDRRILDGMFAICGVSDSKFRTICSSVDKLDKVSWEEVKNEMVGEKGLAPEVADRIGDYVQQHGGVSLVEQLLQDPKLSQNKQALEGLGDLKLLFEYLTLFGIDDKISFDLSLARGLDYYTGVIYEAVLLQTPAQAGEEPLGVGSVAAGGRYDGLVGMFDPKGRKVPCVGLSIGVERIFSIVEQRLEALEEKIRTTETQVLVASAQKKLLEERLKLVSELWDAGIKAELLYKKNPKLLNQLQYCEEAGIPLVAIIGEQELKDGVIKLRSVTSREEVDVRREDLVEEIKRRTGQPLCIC

RNP (ribonucleoprotein) [3] = assay: AtheNA, Ab 6.25 ug/ml
Scl-70 [4] = molecular target: Scl-70 (UniProt P11387); assay: AtheNA, Ab 6.25 ug/ml
Chain of Scl-70 (P11387 2-765 limits assumed): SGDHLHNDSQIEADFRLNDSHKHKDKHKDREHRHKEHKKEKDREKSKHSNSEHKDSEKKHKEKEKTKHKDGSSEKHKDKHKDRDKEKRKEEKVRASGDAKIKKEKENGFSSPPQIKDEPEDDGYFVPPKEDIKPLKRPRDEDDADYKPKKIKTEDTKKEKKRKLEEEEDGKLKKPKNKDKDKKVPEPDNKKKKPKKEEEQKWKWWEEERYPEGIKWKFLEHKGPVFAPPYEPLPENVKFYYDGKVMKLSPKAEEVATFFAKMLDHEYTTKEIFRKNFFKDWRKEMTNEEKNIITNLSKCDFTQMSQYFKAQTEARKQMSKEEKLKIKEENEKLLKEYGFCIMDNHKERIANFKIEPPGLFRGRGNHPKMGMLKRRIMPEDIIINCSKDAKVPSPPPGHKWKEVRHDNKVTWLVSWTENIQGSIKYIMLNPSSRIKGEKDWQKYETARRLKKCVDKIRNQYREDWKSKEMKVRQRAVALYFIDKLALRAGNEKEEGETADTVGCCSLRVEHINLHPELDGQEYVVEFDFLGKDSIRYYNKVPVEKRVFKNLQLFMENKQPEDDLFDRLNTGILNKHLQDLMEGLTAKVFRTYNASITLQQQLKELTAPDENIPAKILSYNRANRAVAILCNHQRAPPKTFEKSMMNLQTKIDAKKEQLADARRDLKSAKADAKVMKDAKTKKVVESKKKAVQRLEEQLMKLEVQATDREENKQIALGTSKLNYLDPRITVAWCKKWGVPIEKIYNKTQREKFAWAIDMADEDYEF

Histones [5] = assay: AtheNA, Ab 6.25 ug/ml
SSA [6] = assay: AtheNA, Ab 6.25 ug/ml
Sm (Smith antigen) [7] = assay: AtheNA, Ab 6.25 ug/ml
AtheNA, Ab 50 ug/ml = substrate: T1, ; assay: AtheNA, Ab 50 ug/ml
Centromere B [8] = molecular target: T2, Centromere B; assay: AtheNA, Ab 12.5 ug/ml
Jo-1 [9] = molecular target: T3, Jo-1; assay: AtheNA, Ab 12.5 ug/ml
RNP (ribonucleoprotein) [10] = assay: AtheNA, Ab 12.5 ug/ml
Scl-70 [11] = molecular target: Scl-70 (UniProt P11387); assay: AtheNA, Ab 12.5 ug/ml
Histones [12] = assay: AtheNA, Ab 12.5 ug/ml
SSA [13] = assay: AtheNA, Ab 12.5 ug/ml
Sm (Smith antigen) [14] = assay: AtheNA, Ab 12.5 ug/ml
Centromere B [15] = molecular target: T2, Centromere B; assay: AtheNA, Ab 25 ug/ml
Jo-1 [16] = molecular target: T3, Jo-1; assay: AtheNA, Ab 25 ug/ml
RNP (ribonucleoprotein) [17] = assay: AtheNA, Ab 25 ug/ml
Scl-70 [18] = molecular target: Scl-70 (UniProt P11387); assay: AtheNA, Ab 25 ug/ml
Histones [19] = assay: AtheNA, Ab 25 ug/ml
SSA [20] = assay: AtheNA, Ab 25 ug/ml
Sm (Smith antigen) [21] = assay: AtheNA, Ab 25 ug/ml
Centromere B [22] = molecular target: T2, Centromere B; assay: AtheNA, Ab 50 ug/ml
Jo-1 [23] = molecular target: T3, Jo-1; assay: AtheNA, Ab 50 ug/ml
Histones [24] = assay: AtheNA, Ab 50 ug/ml
SSA [25] = assay: AtheNA, Ab 50 ug/ml
Sm (Smith antigen) [26] = assay: AtheNA, Ab 50 ug/ml
AtheNA, Ab 12.5 ug/ml = substrate: T1, ; assay: AtheNA, Ab 12.5 ug/ml

B1: CH236_4A/293i (antibody, from a related filing, V domains shown)
VH: QVQLVQSGAAVKRPGASVTISCRASGYTFTTYYIHWVRQAPGQRLELMGMIDPSRGRTDYAQKFQGRVTMSRDTSTSTLYMELRSLRPDDTALYYCVRNVGTEGSLLHYDYWGQGTLVTVSS
VL: EIVLTQSPATLSVSPGERVTLSCRASQSVRNNLAWYRQKRGQAPRLLIYGASTRATGIPARFSGSGSGTEFTLTISSMQSEDFAVYYCQQYNNWWTFGQGTKVEIK
AtheNA, Ab 6.25 ug/ml
  Athena reading (relative luminescence units): 15
AtheNA, Ab 25 ug/ml
  Athena reading (relative luminescence units): 175
Centromere B [1]
  Athena reading (relative luminescence units): 208
Jo-1 [2]
  Athena reading (relative luminescence units): 7
RNP (ribonucleoprotein) [3]
  Athena reading (relative luminescence units): 40
Scl-70 [4]
  Athena reading (relative luminescence units): 31
Histones [5]
  Athena reading (relative luminescence units): 154
SSA [6]
  Athena reading (relative luminescence units): 44
Sm (Smith antigen) [7]
  Athena reading (relative luminescence units): 184
AtheNA, Ab 50 ug/ml
  Athena reading (relative luminescence units): 207
Centromere B [8]
  Athena reading (relative luminescence units): 233
Jo-1 [9]
  Athena reading (relative luminescence units): 19
RNP (ribonucleoprotein) [10]
  Athena reading (relative luminescence units): 78
Scl-70 [11]
  Athena reading (relative luminescence units): 50
Histones [12]
  Athena reading (relative luminescence units): 234
SSA [13]
  Athena reading (relative luminescence units): 185
Sm (Smith antigen) [14]
  Athena reading (relative luminescence units): 258
Centromere B [15]
  Athena reading (relative luminescence units): 129
Jo-1 [16]
  Athena reading (relative luminescence units): 72
RNP (ribonucleoprotein) [17]
  Athena reading (relative luminescence units): 69
Scl-70 [18]
  Athena reading (relative luminescence units): 62
Histones [19]
  Athena reading (relative luminescence units): 193
SSA [20]
  Athena reading (relative luminescence units): 224
Sm (Smith antigen) [21]
  Athena reading (relative luminescence units): 165
Centromere B [22]
  Athena reading (relative luminescence units): 84
Jo-1 [23]
  Athena reading (relative luminescence units): 145
Histones [24]
  Athena reading (relative luminescence units): 138
SSA [25]
  Athena reading (relative luminescence units): 177
Sm (Smith antigen) [26]
  Athena reading (relative luminescence units): 128
AtheNA, Ab 12.5 ug/ml
  Athena reading (relative luminescence units): 63
